Literature values in patent publication EP1140148B1, “SHELF-STABLE SOLUTION FORMULATION OF GLUCAGON-LIKE PEPTIDE-1” (ELI LILLY AND COMPANY, priority 1998, dated 2005).

Conditions: stored at 4° C; as early as; Mojsov 1992

Substance: GLP-1(7-37): Glucagon-like peptide-1 (7-37), insulinotropic peptide hormone
- by-products found after sample preparation: eleven
